From PMC2062912 come the findings set out here.

The target in this experiment is recombinant avidin (hen) (UniProt P02701). The experiment in a line: SEC + other: electrophoresis; purified renatured rec-AV alone; conditions not given; details referred to Shin et al, 1997.

As for “recombinant avidin (from UniProt P02701 25-152) (natural protein)”, the stoichiometry N stood at 4.

The term stoichiometry N denotes a count of units in the complex or per binding partner.
